Assay results as given in article PMC11621127.
Like-named read-outs stand apart in the source and are kept apart here.

Columns and labels:
[1] = molecular target: 6535.3 SOSIP (chimeric SOSIP Env trimer: gp120 from 6535.3, gp41 from BG505 with MD39 substitutions) (HIV-1 strain 6535.3 | HIV-1 strain BG505); assay: mass photometry; Fab-SOSIP complexes formed at room temperature in TBS overnight, 4 uM trimer, 1.05 molar excess of Fab to SOSIP protomer, not purified by SEC; diluted to 8 nM trimer and a further 10-fold (6535.3) or 4-fold (JRCSF) on the instrument; SOSIP alone as control
[2] = molecular target: JRCSF SOSIP (chimeric SOSIP Env trimer: gp120 from JRCSF.JB, gp41 from BG505 with MD39 substitutions) (HIV-1 strain JRCSF.JB | HIV-1 strain BG505); assay: as above
[3] = molecular target: 6535.3 SOSIP (chimeric SOSIP Env trimer: gp120 from 6535.3, gp41 from BG505 with MD39 substitutions) (HIV-1 strain 6535.3 | HIV-1 strain BG505); assay: cryo-EM structure; SOSIP complexed with Fab at room temperature overnight, about 1.3:1 molar excess Fab:SOSIP protomer; SEC (Superose 6 Increase) in TBS; ~1.1 mg/mL (JRCSF/Ab1456) or ~1.9 mg/mL (6535.3/Ab1271); no sCD4 or CD4 mimetic
[4] = molecular target: JRCSF SOSIP (chimeric SOSIP Env trimer: gp120 from JRCSF.JB, gp41 from BG505 with MD39 substitutions) (HIV-1 strain JRCSF.JB | HIV-1 strain BG505); assay: as above
[5] = molecular target: JRCSF SOSIP (chimeric SOSIP Env trimer: gp120 from JRCSF.JB, gp41 from BG505 with MD39 substitutions) (HIV-1 strain JRCSF.JB | HIV-1 strain BG505); assay: as above; remark: listed apart in the source
[6] = molecular target: JRCSF SOSIP (chimeric SOSIP Env trimer: gp120 from JRCSF.JB, gp41 from BG505 with MD39 substitutions) (HIV-1 strain JRCSF.JB | HIV-1 strain BG505); assay: as above; remark: listed apart in the source

Work on “6535.3 SOSIP (chimeric SOSIP Env trimer: gp120 from 6535.3, gp41 from BG505 with MD39 substitutions) (complex)” yielded a stoichiometry N [1] of 3.

“JRCSF SOSIP (chimeric SOSIP Env trimer: gp120 from JRCSF.JB, gp41 from BG505 with MD39 substitutions) (complex)” showed a stoichiometry N [2] of 3.

B1: Ab1271 Fab (Fab, V domains shown)
VH: QVQLVESGPGLVKPSETLSLTCAVSGDSISSTWWNWIRQPPGKGLEWIGRISGDGGNTDYSPSLKSRVTISTDTSKNQLSLRLTSVAAADTAVYFCAAPDCSGPDCSPGFDYWGPGVLVTVSS
VL: QPVLTQPPSVSGAPGQRVTISCTGSSSDIGRFYVQWYQQLPGTAPKLLIYENTKRPSGISDRFSGSQSGPSASLTITGLQSEDEADYYCQSYDSSMSAHVLFGGGTRLTVL
B1 was tested, and the stoichiometry N (Fab per trimer) [3] was 1 and the stoichiometry N (Fab per trimer) [1] was 1.

B2: Ab1456 Fab (Fab, V domains shown)
VH: QVQLVESGAEVKRPGDSLKISCKTSGDVFTSTWITWVRQMPGKDLEWMASIYLDDSDTQYNPSFQGHVTISADKSINTIYLQLSSLKVSDTATYYCAKWGVDCSDSGCSSAFDSWGQGVLVTVSS
VL: SYELTQPPSVSGAPGQRVTISCTGGTSNIGNYYVQWYQQLPGTAPKLLIYENNKRPSGISDRFSGSQSGTSGSLTITTGLQSEDEADYFCQSYDDSLSAHVFGSGTKVTIL
In the case of B2, the stoichiometry N (Fab per trimer) [4] is reported as 1, the stoichiometry N (Fab per trimer) [5] is reported as 3 and the stoichiometry N (Fab per trimer) [6] is reported as 2.
